{
  "source": "patent US20250076311A1",
  "about": "(Chugai, published 2025)",
  "binders": {"B1": {"name": "M103205H795-MY455/M103202L889-SK1 (antibody, human IgG1, kappa)", "heavy": "QVTLKESGPVLVKPTETLTLTCTVSGIDLSHDDISWVRQAPGKGLEWVGIISYAGSTYYASWAKGRLTISKDTSKNQVVLTMTNMDPVDTATYYCARGVPAYSHGGDLWGQGTLVTVSSASTKGPSVFPLAPSSKSTSGGTAALGCLVKDYFPEPVTVSWNSGALTSGVHTFPAVLQSSGLYSLSSVVTVPSSSLGTQTYICNVNHKPSNTKVDKKVEPKSCDKTHTCPPCPATELLTGPSVFLFPPKPKDTLMISRTPEVTCVVVDVSDEDPEVKFNWYVDGVEVHNAKTKPREEQYNSTYRVVSVLTVLHQDWLNGKEYKCKVSNKALPKPIEKTISKAKGQPREPQVYTLPPSREEMTKNQVSLTCLVKGFYPSDIAVEWESNGQPENNYKTTPPVLDSDGSFFLYSKLTVDKSRWQQGNVFSCSVMHEALHNHYTQKSLSLSP", "light": "DIVMTQSPATLSLSPGERATLSCTSSQSVYHANWLSWFQQKPGQPPKLLIYWASTLAYGVPSRFSGSGSGTDFTLTISSLQPEDAATYYCAGGYGGGRYAFGQGTKVEIKRTVAAPSVFIFPPSDEQLKSGTASVVCLLNNFYPREAKVQWKVDNALQSGNSQESVTEQDSKDSTYSLSSTLTLSKADYEKHKVYACEVTHQGLSSPVTKSFNRGEC", "notes": "Substitutions in EU numbering on SG1"}, "B2": {"name": "M103205H795-MY461/M103202L889-SK1 (antibody)", "heavy": "B1 heavy with A233F, T234P", "light": "B1 light", "notes": "as for B1"}, "B3": {"name": "M103205H795-MY462/M103202L889-SK1 (antibody)", "heavy": "B1 heavy with A233G, T234P", "light": "B1 light", "notes": "as for B1"}, "B4": {"name": "M103205H795-MY474/M103202L889-SK1 (antibody)", "heavy": "B1 heavy with A233V, T234P", "light": "B1 light", "notes": "as for B1"}, "B5": {"name": "M103205H795-MY463/M103202L889-SK1 (antibody)", "chain 1": "B1 heavy with A233H, T234P", "chain 2": "B1 light"}, "B6": {"name": "M103205H795-MY470/M103202L889-SK1 (antibody)", "chain 1": "B1 heavy with A233Q, T234P", "chain 2": "B1 light"}, "B7": {"name": "M103205H795-MY471/M103202L889-SK1 (antibody)", "chain 1": "B1 heavy with A233R, T234P", "chain 2": "B1 light"}},
  "key": {"[1]": {"target": "T1, cynomolgus monkey FcγRIIa2 extracellular domain with C-terminal His-tag (cynomolgus monkey)", "T1 construct": "also called cyno FcgRIIa2; cynoFcγRIIa2", "T1 chain": "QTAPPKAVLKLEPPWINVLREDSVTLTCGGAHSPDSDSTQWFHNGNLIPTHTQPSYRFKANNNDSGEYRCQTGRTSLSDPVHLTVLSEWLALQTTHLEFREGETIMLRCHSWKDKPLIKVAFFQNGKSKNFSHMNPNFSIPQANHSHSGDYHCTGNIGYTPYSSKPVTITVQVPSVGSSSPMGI", "assay": "SPR (Biacore), antibody captured, FcgR analyte"}, "[2]": {"target": "T1, cynomolgus monkey FcγRIIa2 …", "assay": "SPR (Biacore), KD of SG1 / KD of variant"}, "[3]": {"target": "T2, cynomolgus monkey FcγRIIb extracellular domain with C-terminal His-tag (cynomolgus monkey)", "T2 construct": "also called cyno FcgRIIb; cynoFcγRIIb", "T2 chain": "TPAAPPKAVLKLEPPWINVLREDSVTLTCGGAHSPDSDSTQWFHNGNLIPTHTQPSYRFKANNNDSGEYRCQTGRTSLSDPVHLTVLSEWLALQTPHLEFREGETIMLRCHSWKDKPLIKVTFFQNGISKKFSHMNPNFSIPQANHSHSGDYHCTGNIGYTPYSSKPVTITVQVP", "assay": "SPR (Biacore), KD of SG1 / KD of variant"}, "[4]": {"target": "T3, human FcγRIIaH extracellular domain with C-terminal His-tag (human, UniProt P12318 34-217)", "T3 construct": "also called human FcgRIIaH; FcγRIIa (type H)", "T3 sequence": "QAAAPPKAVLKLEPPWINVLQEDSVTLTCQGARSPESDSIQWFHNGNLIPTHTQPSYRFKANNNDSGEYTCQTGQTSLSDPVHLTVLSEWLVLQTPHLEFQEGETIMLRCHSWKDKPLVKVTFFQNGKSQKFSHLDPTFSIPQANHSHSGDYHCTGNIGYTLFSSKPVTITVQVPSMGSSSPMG", "assay": "SPR (Biacore), KD of SG1 / KD of variant"}, "[5]": {"target": "T4, human FcγRIIIaV extracellular domain with C-terminal His-tag (human, UniProt P08637 17-208)", "T4 construct": "also called human FcgRIIIaV", "T4 sequence (P08637 17-208 F176V)": "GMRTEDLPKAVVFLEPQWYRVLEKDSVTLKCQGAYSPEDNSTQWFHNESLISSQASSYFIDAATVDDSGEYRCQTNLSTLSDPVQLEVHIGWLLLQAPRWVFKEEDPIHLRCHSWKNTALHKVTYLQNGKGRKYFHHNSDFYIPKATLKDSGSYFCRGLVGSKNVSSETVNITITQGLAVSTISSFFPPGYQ", "assay": "SPR (Biacore), KD of SG1 / KD of variant"}, "[6]": {"target": "T5, cynomolgus monkey FcγRIIa1 extracellular domain with C-terminal His-tag (cynomolgus monkey)", "T5 construct": "also called cyno FcgRIIa1; cynoFcγRIIa1", "T5 chain": "T1 chain with T95P, A121T, K127I, S128A, N130K, N135D, Q142R", "assay": "SPR (Biacore), antibody captured, FcgR analyte"}, "[7]": {"target": "T6, cynomolgus monkey FcγRIIa3 extracellular domain with C-terminal His-tag (cynomolgus monkey)", "T6 construct": "also called cyno FcgRIIa3; cynoFcγRIIa3", "T6 chain": "T1 chain with K127I, N130K, H133P, Q142R", "assay": "SPR (Biacore), antibody captured, FcgR analyte"}, "[8]": {"target": "T3, human FcγRIIaH extracellular domain …", "assay": "SPR (Biacore), antibody captured, FcgR analyte"}, "[9]": {"target": "T7, human FcγRIIb extracellular domain with C-terminal His-tag (human, UniProt P31994 43-217)", "T7 construct": "also called human FcgRIIb", "T7 sequence": "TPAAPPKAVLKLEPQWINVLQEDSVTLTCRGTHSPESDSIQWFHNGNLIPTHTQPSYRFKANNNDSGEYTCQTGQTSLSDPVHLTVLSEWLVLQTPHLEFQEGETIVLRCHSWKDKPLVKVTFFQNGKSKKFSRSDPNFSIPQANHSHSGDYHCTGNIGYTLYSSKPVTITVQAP", "assay": "SPR (Biacore), KD of SG1 / KD of variant"}, "[10]": {"target": "T7, human FcγRIIb extracellular domain with …", "assay": "SPR (Biacore), antibody captured, FcgR analyte"}, "[11]": {"target": "T4, human FcγRIIIaV extracellular domain …", "assay": "SPR (Biacore), antibody captured, FcgR analyte"}, "[12]": {"target": "T8, human FcγRIIaR extracellular domain with C-terminal His-tag (human, UniProt P12318 34-217)", "T8 construct": "also called human FcgRIIaR; FcγRIIa (type R)", "T8 chain": "T3 sequence with H134R", "assay": "SPR (Biacore), KD of SG1 / KD of variant"}, "[13]": {"target": "T6, cynomolgus monkey FcγRIIa3 …", "assay": "SPR (Biacore), KD of SG1 / KD of variant"}},
  "note": "Changes are numbered by the printed parent chain.",
  "data": [
    {"binder": "B1", "values": [
      {"measurement": "Kd", "setting": "[1]", "result": 2900, "unit": "nM"}
    ]},
    {"binder": "B2", "values": [
      {"measurement": "KD fold (SG1 = 1)", "setting": "[2]", "result": 2.8, "unit": "fold"},
      {"measurement": "KD fold (SG1 = 1)", "setting": "[3]", "result": 3.6, "unit": "fold"},
      {"measurement": "KD fold (SG1 = 1)", "setting": "[4]", "result": 3.6, "unit": "fold"},
      {"measurement": "KD fold (SG1 = 1)", "setting": "[5]", "result": 0.2, "unit": "fold"},
      {"measurement": "Kd", "setting": "[6]", "result": 1800, "unit": "nM"},
      {"measurement": "Kd", "setting": "[7]", "result": 3.5, "unit": "µM"},
      {"measurement": "Kd", "setting": "[8]", "result": 180, "unit": "nM"}
    ]},
    {"binder": "B3", "values": [
      {"measurement": "KD fold (SG1 = 1)", "setting": "[3]", "result": 3.6, "unit": "fold"},
      {"measurement": "KD fold (SG1 = 1)", "setting": "[5]", "result": 0.2, "unit": "fold"},
      {"measurement": "Kd", "setting": "[1]", "result": 1800, "unit": "nM"}
    ]},
    {"binder": "B4", "values": [
      {"measurement": "KD fold (SG1 = 1)", "setting": "[9]", "result": 2.9, "unit": "fold"},
      {"measurement": "Kd", "setting": "[8]", "result": 130, "unit": "nM"}
    ]},
    {"binder": "B5", "values": [
      {"measurement": "KD fold (SG1 = 1)", "setting": "[2]", "result": 2.8, "unit": "fold"},
      {"measurement": "Kd", "setting": "[10]", "result": 2300, "unit": "nM"},
      {"measurement": "Kd", "setting": "[11]", "result": 4.8, "unit": "µM"}
    ]},
    {"binder": "B6", "values": [
      {"measurement": "KD fold (SG1 = 1)", "setting": "[12]", "result": 2.3, "unit": "fold"},
      {"measurement": "Kd", "setting": "[10]", "result": 2300, "unit": "nM"}
    ]},
    {"binder": "B7", "values": [
      {"measurement": "KD fold (SG1 = 1)", "setting": "[13]", "result": 3.5, "unit": "fold"},
      {"measurement": "KD fold (SG1 = 1)", "setting": "[12]", "result": 2.3, "unit": "fold"},
      {"measurement": "KD fold (SG1 = 1)", "setting": "[9]", "result": 1.6, "unit": "fold"}
    ]}
  ]
}
